Assay results from the supplement of paper PMC10065799, “High-throughput profiling of sequence recognition by tyrosine kinases and SH2 domains using bacterial peptide display” (eLife, 2023).

Assays:
AncSZ = experiment: phosphorylation enrichment, bacterial display (enrichment ratio); higher = better substrate or ligand; peptides without Tyr show the background
EPHB1 = EPHB1 (UniProt P54762); experiment: as above
EPHB2 = EPHB2 (UniProt P29323); experiment: as above
FGFR1 = FGFR1 (UniProt P11362); experiment: as above
FGFR3 = FGFR3 (UniProt P22607); experiment: as above
FGFR3, sequence (P22607 whole entry, looked up): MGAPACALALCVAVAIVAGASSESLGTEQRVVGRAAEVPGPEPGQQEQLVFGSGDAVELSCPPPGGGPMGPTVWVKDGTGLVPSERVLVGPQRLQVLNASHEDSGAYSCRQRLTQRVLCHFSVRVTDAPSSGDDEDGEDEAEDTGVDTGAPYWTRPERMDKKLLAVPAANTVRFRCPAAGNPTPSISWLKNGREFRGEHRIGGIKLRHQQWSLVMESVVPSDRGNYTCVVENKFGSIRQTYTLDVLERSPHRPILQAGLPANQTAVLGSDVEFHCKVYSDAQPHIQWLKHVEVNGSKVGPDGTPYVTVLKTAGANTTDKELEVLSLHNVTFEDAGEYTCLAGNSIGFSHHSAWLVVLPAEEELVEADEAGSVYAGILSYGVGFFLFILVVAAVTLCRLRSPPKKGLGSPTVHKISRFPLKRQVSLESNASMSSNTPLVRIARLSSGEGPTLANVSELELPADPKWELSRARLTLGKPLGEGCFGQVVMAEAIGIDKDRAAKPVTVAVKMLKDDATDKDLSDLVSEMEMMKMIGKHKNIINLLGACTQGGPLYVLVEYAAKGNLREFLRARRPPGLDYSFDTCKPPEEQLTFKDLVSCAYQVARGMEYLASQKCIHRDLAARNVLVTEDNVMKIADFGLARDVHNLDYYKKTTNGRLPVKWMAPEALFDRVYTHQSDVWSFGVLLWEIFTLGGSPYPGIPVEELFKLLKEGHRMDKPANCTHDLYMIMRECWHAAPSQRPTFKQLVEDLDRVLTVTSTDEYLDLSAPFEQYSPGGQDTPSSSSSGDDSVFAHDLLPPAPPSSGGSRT

Fer (mouse) = experiment: as above
Fes = Fes (UniProt P07332); experiment: as above
Fes, sequence (P07332 whole entry, looked up): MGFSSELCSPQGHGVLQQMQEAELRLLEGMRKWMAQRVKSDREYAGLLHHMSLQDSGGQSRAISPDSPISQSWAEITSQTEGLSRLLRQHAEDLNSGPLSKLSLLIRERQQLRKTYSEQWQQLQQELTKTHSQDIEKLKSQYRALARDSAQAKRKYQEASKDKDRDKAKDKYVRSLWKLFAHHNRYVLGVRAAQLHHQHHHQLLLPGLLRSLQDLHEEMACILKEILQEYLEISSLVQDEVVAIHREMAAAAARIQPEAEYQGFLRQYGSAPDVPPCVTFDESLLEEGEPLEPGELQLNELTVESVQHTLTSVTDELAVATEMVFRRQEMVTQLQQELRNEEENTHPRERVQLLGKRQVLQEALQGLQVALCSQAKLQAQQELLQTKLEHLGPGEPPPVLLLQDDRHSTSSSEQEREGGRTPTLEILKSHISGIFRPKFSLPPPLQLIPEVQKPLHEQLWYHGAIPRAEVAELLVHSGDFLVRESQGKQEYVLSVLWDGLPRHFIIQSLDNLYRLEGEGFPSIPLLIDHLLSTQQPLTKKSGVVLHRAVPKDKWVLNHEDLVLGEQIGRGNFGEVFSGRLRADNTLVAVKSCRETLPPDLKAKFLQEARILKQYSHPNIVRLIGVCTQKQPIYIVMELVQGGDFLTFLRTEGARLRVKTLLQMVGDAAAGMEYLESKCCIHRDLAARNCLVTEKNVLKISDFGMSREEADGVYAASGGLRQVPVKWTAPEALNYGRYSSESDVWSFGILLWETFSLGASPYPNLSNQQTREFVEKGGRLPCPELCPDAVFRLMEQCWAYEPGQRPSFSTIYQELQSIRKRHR

Fyn = Fyn (UniProt P06241); experiment: as above
Fyn, sequence (P06241 whole entry, looked up): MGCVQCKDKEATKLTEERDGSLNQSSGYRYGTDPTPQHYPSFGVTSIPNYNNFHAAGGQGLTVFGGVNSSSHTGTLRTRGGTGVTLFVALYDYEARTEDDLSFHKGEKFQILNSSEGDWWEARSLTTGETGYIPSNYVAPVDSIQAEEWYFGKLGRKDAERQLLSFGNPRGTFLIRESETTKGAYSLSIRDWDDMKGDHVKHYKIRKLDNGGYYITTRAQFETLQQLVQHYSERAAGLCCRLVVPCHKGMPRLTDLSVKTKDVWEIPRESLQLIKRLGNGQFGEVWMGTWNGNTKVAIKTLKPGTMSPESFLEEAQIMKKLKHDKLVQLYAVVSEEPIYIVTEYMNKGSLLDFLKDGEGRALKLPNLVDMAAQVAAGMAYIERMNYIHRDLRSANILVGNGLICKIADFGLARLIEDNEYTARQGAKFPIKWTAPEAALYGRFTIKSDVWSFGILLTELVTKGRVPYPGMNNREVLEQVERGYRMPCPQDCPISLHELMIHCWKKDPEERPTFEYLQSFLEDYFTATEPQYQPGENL

Hck = Hck (UniProt P08631); experiment: as above
Hck, sequence (P08631 whole entry, looked up): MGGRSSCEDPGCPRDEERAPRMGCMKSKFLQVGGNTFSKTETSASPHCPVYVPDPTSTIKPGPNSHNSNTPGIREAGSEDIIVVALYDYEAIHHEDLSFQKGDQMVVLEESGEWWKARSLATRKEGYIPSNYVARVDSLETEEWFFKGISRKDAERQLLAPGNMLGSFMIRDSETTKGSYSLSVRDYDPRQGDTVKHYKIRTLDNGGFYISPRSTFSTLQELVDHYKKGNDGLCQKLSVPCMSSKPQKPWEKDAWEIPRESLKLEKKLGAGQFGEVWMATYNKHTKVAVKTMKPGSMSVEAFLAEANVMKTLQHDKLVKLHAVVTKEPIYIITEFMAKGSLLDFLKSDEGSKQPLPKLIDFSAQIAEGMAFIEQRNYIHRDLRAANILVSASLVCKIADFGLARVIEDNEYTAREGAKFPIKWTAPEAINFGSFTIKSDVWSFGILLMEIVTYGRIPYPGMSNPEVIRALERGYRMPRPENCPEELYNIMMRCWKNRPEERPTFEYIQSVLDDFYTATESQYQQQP

Jak2 = Jak2 (UniProt O60674); experiment: as above
Jak2, sequence (O60674 whole entry, looked up): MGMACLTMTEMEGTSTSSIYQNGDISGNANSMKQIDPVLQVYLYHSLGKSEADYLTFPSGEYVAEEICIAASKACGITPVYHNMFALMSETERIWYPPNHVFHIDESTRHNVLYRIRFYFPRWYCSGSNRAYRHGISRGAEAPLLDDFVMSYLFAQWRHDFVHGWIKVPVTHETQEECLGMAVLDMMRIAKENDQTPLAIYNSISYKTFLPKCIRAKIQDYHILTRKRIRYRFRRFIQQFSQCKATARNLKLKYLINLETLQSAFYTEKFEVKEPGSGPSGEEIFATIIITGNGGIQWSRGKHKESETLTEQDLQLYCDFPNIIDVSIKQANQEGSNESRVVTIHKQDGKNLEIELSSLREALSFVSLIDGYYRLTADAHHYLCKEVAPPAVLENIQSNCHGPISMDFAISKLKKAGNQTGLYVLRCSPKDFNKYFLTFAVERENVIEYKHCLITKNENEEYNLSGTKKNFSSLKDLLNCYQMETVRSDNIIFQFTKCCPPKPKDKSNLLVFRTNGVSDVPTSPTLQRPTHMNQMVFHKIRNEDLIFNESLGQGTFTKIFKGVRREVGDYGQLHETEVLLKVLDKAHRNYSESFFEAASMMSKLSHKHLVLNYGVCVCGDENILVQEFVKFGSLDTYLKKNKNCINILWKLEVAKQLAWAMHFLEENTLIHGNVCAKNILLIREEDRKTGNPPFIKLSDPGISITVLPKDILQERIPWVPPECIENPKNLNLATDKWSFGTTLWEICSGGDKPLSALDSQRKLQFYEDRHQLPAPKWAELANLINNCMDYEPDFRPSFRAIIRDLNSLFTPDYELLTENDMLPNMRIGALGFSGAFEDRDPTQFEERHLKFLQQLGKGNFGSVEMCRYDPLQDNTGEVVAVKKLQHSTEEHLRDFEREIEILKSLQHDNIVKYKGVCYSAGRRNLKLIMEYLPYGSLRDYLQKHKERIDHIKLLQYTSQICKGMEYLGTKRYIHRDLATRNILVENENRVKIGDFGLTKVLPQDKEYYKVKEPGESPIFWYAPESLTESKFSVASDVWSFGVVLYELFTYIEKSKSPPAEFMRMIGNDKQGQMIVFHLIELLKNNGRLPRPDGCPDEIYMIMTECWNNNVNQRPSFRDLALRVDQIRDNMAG

MERTK = MERTK (UniProt Q12866); experiment: as above
MERTK, sequence (Q12866 whole entry, looked up): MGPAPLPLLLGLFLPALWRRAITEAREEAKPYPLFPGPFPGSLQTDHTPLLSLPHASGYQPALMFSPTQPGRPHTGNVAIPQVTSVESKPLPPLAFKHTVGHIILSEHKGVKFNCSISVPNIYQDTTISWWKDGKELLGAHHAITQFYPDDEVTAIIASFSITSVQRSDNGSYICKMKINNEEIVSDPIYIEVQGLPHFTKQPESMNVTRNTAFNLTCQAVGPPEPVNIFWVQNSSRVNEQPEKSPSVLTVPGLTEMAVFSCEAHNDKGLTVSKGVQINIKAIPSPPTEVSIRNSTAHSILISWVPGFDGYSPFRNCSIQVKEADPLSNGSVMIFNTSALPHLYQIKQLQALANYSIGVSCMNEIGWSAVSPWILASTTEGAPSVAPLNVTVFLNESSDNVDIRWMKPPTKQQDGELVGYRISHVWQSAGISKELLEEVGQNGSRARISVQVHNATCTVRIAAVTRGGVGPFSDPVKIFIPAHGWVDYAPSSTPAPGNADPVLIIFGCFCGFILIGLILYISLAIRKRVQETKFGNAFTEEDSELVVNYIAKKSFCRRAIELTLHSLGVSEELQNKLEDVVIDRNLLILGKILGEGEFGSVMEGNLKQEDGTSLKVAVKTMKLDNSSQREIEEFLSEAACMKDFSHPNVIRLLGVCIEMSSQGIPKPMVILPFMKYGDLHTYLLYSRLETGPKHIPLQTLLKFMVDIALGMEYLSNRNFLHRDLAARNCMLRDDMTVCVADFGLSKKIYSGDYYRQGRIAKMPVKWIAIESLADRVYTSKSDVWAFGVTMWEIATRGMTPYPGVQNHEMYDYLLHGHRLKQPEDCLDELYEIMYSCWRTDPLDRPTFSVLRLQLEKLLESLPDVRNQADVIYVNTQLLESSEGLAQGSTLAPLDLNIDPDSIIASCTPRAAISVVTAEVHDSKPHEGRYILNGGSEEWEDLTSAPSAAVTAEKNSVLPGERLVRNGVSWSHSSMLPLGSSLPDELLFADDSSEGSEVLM

c-Abl (mouse) = experiment: as above
c-Src = experiment: as above
Grb2 SH2 = Grb2 SH2 (UniProt P62993); experiment: SH2 binding enrichment of the phosphorylated peptide, bacterial display (enrichment ratio); higher = better substrate or ligand; peptides without Tyr show the background
SHP2-C SH2 = experiment: as above
c-Src SH2 = experiment: as above
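For SH2 binding enrichment of the phosphorylated peptide, bacterial display in this document: peptide library displayed on the E. coli surface as eCPX fusions, selected cells deep-sequenced, score is each peptide's frequency after selection divided by its frequency in the input.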
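For phosphorylation enrichment, bacterial display in this document: 11-residue human phosphosite peptides and single-mutation variants displayed on the E. coli surface, counted by deep sequencing, each peptide's frequency after selection divided by its frequency in the unselected input library; frequency after pTyr selection over input frequency; kinase dosed for 20-30% of maximal phosphorylation in three min.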

| SH2 binding enrichment (Grb2 SH2) | SH2 binding enrichment (SHP2-C SH2) | SH2 binding enrichment (c-Src SH2) | Sequence | phosphorylation enrichment (AncSZ) | phosphorylation enrichment (EPHB1) | phosphorylation enrichment (EPHB2) | phosphorylation enrichment (FGFR1) | phosphorylation enrichment (FGFR3) | phosphorylation enrichment (Fer (mouse)) | phosphorylation enrichment (Fes) | phosphorylation enrichment (Fyn) | phosphorylation enrichment (Hck) | phosphorylation enrichment (Jak2) | phosphorylation enrichment (MERTK) | phosphorylation enrichment (c-Abl (mouse)) | phosphorylation enrichment (c-Src) |
| --- | --- | --- | --- | --- | --- | --- | --- | --- | --- | --- | --- | --- | --- | --- | --- | --- |
| 0.777 | 0.588 | 0.38 | DDEVFYSPLSL [OTC_Y317_R320L] | 2 | 0.495 | 0.598 | 3.14 | 2.76 | 11.1 | 1.2 | 5.08 | 7.22 | 1.28 | 5.35 | 2.96 | 5.55 |
| 1.15 | 0.909 | 0.467 | DDPRRYQKFGF [OAS1_Y362_YF] | 0.593 | 0.376 | 0.425 | 0.438 | 0.528 | 0.414 | 0.667 | 0.502 | 0.398 | 0.674 | 0.475 | 0.418 | 0.321 |
| 0.889 | 0.554 | 0.655 | DELDKYSEALK [TPM1_Y60] | 1.19 | 0.469 | 0.577 | 0.451 | 0.59 | 0.472 | 1.03 | 0.443 | 0.489 | 0.977 | 0.395 | 0.676 | 0.422 |
| 0.856 | 1.03 | 0.554 | DEQKKYFNAMK [SCN5A_Y1494_E1489D_YF] | 0.68 | 0.374 | 0.428 | 0.592 | 0.474 | 0.437 | 0.883 | 0.394 | 0.419 | 0.952 | 0.448 | 0.815 | 0.548 |
| 0.853 | 0.582 | 2.03 | DFPGNYSGYDD [POLR1C_Y33] | 1.3 | 1.31 | 1.3 | 0.671 | 0.913 | 0.65 | 1.24 | 0.675 | 0.573 | 1.17 | 0.62 | 0.976 | 0.612 |
| 0.859 | 0.773 | 0.481 | DGQFVYKLTDF [TBK1_Y153_S151F] | 1.06 | 0.467 | 0.587 | 0.498 | 0.649 | 0.739 | 1.01 | 2.44 | 0.832 | 0.799 | 0.366 | 0.482 | 2.32 |
| 0.952 | 0.824 | 0.656 | DILASYLDKVR [KRT12_Y139_R135I] | 0.54 | 0.364 | 0.437 | 0.407 | 0.594 | 0.284 | 0.96 | 0.457 | 0.403 | 0.505 | 0.364 | 0.37 | 0.375 |
| 0.764 | 0.768 | 0.556 | DIMDLYNQPEL [IL36A_Y96_P101L] | 1.54 | 0.559 | 0.613 | 0.567 | 0.943 | 0.589 | 1.28 | 0.932 | 1.29 | 1.11 | 0.511 | 0.868 | 0.99 |
| 0.633 | 0.687 | 7.43 | DIRAQYDELAQ [KRT18_Y256_R261Q] | 1.08 | 0.546 | 0.574 | 0.49 | 0.753 | 0.45 | 1.06 | 0.576 | 0.574 | 0.864 | 0.582 | 0.614 | 0.473 |
| 0.826 | 0.497 | 0.42 | DISEPYKVFRI [IRF8_Y107_YF] | 1.11 | 0.543 | 0.529 | 0.552 | 0.618 | 0.565 | 1.17 | 0.628 | 0.563 | 0.78 | 0.582 | 1 | 0.628 |
| 0.768 | 0.617 | 0.55 | DLWEKYMDCGG [HAP1_Y440_R437W] | 1.44 | 0.976 | 0.775 | 0.6 | 0.854 | 0.578 | 1.42 | 0.509 | 0.596 | 1.12 | 0.458 | 0.738 | 0.436 |
| 0.613 | 0.546 | 0.516 | DNEAIYDICRR [TUBA4A_Y210] | 2.79 | 4.07 | 4.97 | 0.671 | 0.843 | 10.7 | 1.45 | 8.6 | 7.21 | 1.03 | 5.98 | 16.1 | 5.7 |
| 0.769 | 0.826 | 0.531 | DNQYAYLKAII [HNF4A_Y288_E285Q] | 1.19 | 0.562 | 0.549 | 2.72 | 1.91 | 0.64 | 1.09 | 0.456 | 1.4 | 1.11 | 1.58 | 3.75 | 0.551 |
| 0.732 | 0.605 | 1.73 | DPMNTYARPAE [SGMS2_Y24_T21M] | 0.878 | 0.381 | 0.476 | 0.475 | 0.542 | 0.504 | 0.883 | 0.434 | 0.576 | 0.771 | 0.46 | 0.792 | 0.538 |
| 1.03 | 1.19 | 0.886 | DRKRQCELLKL [KIF4B_Y684_Y684C] | 0.646 | 0.401 | 0.404 | 0.502 | 0.689 | 0.432 | 0.839 | 0.355 | 0.428 | 0.791 | 0.356 | 0.679 | 0.493 |
| 1.04 | 0.667 | 0.521 | DRLASYSDKVR [KRT10_Y160_L161S] | 0.578 | 0.366 | 0.365 | 0.454 | 0.419 | 0.322 | 0.553 | 0.41 | 0.387 | 0.503 | 0.43 | 0.42 | 0.445 |
| 0.756 | 0.912 | 0.471 | DRLAVYIDRVP [LMNA_Y45_R50P] | 1.09 | 0.682 | 0.719 | 0.451 | 0.731 | 0.437 | 1.09 | 0.429 | 0.468 | 0.911 | 0.331 | 0.654 | 0.329 |
| 0.728 | 0.61 | 0.83 | DRTVNYVLKCR [PLEKHG4_Y1068] | 1.15 | 0.668 | 0.67 | 0.517 | 0.778 | 0.566 | 1.17 | 0.515 | 0.688 | 0.898 | 0.357 | 0.764 | 0.43 |

More lines, now with the values behind:

| Sequence | SH2 binding enrichment (Grb2 SH2) | SH2 binding enrichment (SHP2-C SH2) | SH2 binding enrichment (c-Src SH2) | phosphorylation enrichment (AncSZ) | phosphorylation enrichment (EPHB1) | phosphorylation enrichment (EPHB2) | phosphorylation enrichment (FGFR1) | phosphorylation enrichment (FGFR3) | phosphorylation enrichment (Fer (mouse)) | phosphorylation enrichment (Fes) | phosphorylation enrichment (Fyn) | phosphorylation enrichment (Hck) | phosphorylation enrichment (Jak2) | phosphorylation enrichment (MERTK) | phosphorylation enrichment (c-Abl (mouse)) | phosphorylation enrichment (c-Src) |
| --- | --- | --- | --- | --- | --- | --- | --- | --- | --- | --- | --- | --- | --- | --- | --- | --- |
| DEEDTYTMPST [PTK2_Y407] | 0.869 | 0.563 | 0.469 | 3.8 | 0.528 | 0.627 | 0.568 | 0.776 | 0.691 | 1.29 | 3.77 | 1.83 | 1.25 | 0.657 | 1.12 | 2.94 |
| DEYLEHRRIVG [FAM221A_Y20_Y20H] | 0.918 | 0.611 | 0.484 | 0.764 | 1.95 | 0.679 | 0.6 | 0.611 | 0.506 | 0.883 | 0.399 | 0.489 | 0.526 | 0.38 | 0.434 | 0.347 |
| DFNPNYCFAGK [ALK_Y1096_YF] | 0.792 | 0.625 | 0.533 | 1.67 | 1.72 | 0.989 | 0.742 | 0.887 | 0.742 | 1.28 | 0.549 | 0.444 | 1.21 | 1.04 | 0.921 | 0.684 |
| DFTEAYNPKIK [CLK1_Y305_YF] | 0.947 | 1.11 | 0.533 | 0.874 | 0.509 | 0.572 | 0.464 | 0.649 | 0.466 | 1.11 | 0.453 | 0.505 | 0.988 | 0.501 | 0.893 | 0.571 |
| DGPVNYEEFVQ [CALM2_Y139_Q136P] | 0.848 | 0.656 | 0.418 | 1.17 | 1.27 | 1.08 | 0.514 | 0.725 | 0.601 | 1.12 | 0.482 | 0.529 | 1.18 | 0.474 | 0.748 | 0.532 |
| DKHGQYLIGHG [EPHB4_Y581] | 0.905 | 0.565 | 0.485 | 0.652 | 0.397 | 0.376 | 0.482 | 0.576 | 0.465 | 0.645 | 0.449 | 0.475 | 0.599 | 0.378 | 0.525 | 0.436 |
| DKWFLYKMRDI [CPS1_Y879] | 0.838 | 0.661 | 0.373 | 1.14 | 0.671 | 0.57 | 0.466 | 0.77 | 0.505 | 1.36 | 0.444 | 0.469 | 1.32 | 0.311 | 0.963 | 0.403 |
| DLAGRYFALRS [CKB_Y173_K177R_YF] | 0.905 | 0.628 | 0.738 | 0.587 | 0.419 | 0.371 | 0.447 | 0.394 | 0.36 | 0.579 | 0.38 | 0.4 | 0.761 | 0.476 | 0.554 | 0.347 |
| DLREKYMDCGG [HAP1_Y440] | 0.938 | 0.596 | 0.668 | 0.919 | 0.716 | 0.625 | 0.507 | 0.726 | 0.586 | 1.1 | 0.499 | 0.55 | 0.913 | 0.442 | 0.738 | 0.389 |
| DMGAQYAAASP [ARID1B_Y483] | 0.67 | 0.647 | 0.63 | 0.647 | 0.486 | 0.552 | 0.48 | 0.584 | 0.652 | 0.71 | 0.411 | 0.462 | 0.653 | 0.434 | 0.652 | 0.504 |
| DPADRYLTEQC [CDKL5_Y286] | 0.918 | 0.747 | 0.507 | 0.986 | 0.485 | 0.558 | 0.458 | 0.731 | 0.53 | 1.12 | 0.478 | 0.506 | 0.947 | 0.446 | 0.713 | 0.523 |
| DPHECYAEVFD [ALB_Y394_K396E] | 1.1 | 0.954 | 1.23 | 1.32 | 0.871 | 0.807 | 1.2 | 1.25 | 0.617 | 1.55 | 0.753 | 0.944 | 1.01 | 0.626 | 0.817 | 0.775 |
| DRVALYIAREG [AACS_Y117] | 0.896 | 0.928 | 0.487 | 0.957 | 0.671 | 0.534 | 0.519 | 0.717 | 0.484 | 1.14 | 0.468 | 0.569 | 1.02 | 0.395 | 0.731 | 0.432 |
| DRVALYVAREG [AACS_Y117_I118V] | 0.825 | 0.644 | 0.425 | 0.8 | 0.621 | 0.763 | 0.503 | 0.705 | 0.498 | 1.01 | 0.467 | 0.68 | 0.823 | 0.291 | 0.589 | 0.367 |
| DSIRDYEDGME [CLNS1A_Y214] | 0.851 | 0.859 | 0.579 | 1.29 | 0.749 | 0.784 | 0.628 | 0.729 | 0.49 | 1.26 | 0.647 | 0.612 | 1.66 | 0.599 | 0.844 | 0.521 |
